The values that follow are results of earlier work, collected in publication PMC3006222.

The data set addresses Heat-labile enterotoxin B subunit (LTB) (UniProt P0CK94). In words: not stated in this article (acid-induced pentamer disassembly, earlier work). As to conditions: pH 1.9.
Sequence of UniProt P0CK94 (P0CK94 whole entry): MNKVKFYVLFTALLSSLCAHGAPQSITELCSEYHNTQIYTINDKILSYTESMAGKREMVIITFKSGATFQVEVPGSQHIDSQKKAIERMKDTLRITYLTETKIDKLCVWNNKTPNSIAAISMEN

Take Heat-labile enterotoxin B subunit (LTB): the threshold pH for acid disassembly of the pentamer is 1.9 pH.
